According to patent US20140213531A1 (POLYPHOR, published 2014):
One block for each binder: values may come before it. Bridges are numbered along the chain shown (N, C = ends). [ ]: non-standard residue; d: D form. Nle = CCCC[C@H](N)C(=O)O; Abu = CC[C@H](N)C(=O)O

Legend:
Experiment in all cases: cell-based or functional assay
[1] = target: T1, CathepsinG, from human neutrophils (human, UniProt P08311 21-244)
T1 sequence (looked up): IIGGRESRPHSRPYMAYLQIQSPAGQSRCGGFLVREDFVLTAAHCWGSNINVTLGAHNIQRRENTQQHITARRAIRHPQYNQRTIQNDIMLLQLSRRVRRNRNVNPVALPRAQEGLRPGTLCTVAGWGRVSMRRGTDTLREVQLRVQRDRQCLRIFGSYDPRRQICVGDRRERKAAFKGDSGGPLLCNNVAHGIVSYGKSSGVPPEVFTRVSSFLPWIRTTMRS

[2] = target: T2, Chymase, from human skin (human, UniProt P23946 22-247)
T2 sequence (looked up): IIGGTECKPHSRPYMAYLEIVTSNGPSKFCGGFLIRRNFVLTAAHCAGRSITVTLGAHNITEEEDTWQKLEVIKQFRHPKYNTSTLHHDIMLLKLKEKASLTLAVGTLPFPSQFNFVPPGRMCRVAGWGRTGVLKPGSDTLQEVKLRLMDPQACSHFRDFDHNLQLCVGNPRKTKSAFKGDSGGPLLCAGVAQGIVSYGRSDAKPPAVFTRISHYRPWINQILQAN

[3] = target: Trypsin, Iodination grade, from human pancreas (human, UniProt P07477 24-247)
[4] = target: T3, Elastase from human neutrophils (human, UniProt P08246 30-247, limits assumed)
T3 sequence (looked up): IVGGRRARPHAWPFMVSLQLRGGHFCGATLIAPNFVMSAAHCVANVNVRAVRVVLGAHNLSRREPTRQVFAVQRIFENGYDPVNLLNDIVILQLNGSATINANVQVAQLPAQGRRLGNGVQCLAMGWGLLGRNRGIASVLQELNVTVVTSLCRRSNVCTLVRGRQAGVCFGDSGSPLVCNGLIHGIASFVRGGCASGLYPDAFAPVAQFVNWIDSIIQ

B1: Example 25 (peptide)
peptide: FCTKXDPPICS
HELM: PEPTIDE1{F.C.T.K.[NC[C@H](N[*:1])C(=O)[*:2]].D.P.P.I.C.S.[dP].P}$PEPTIDE1,PEPTIDE1,2:R3-10:R3|PEPTIDE1,PEPTIDE1,1:R1-13:R2$$$V2.0
SMILES: CC[C@H](C)[C@@H]1NC(=O)[C@@H]2CCCN2C(=O)[C@@H]2CCCN2C(=O)[C@H](CC(=O)O)NC(=O)[C@H](CN)NC(=O)[C@H](CCCCN)NC(=O)[C@H]([C@@H](C)O)NC(=O)[C@@H]2CSSC[C@H](NC1=O)C(=O)N[C@@H](CO)C(=O)N1CCC[C@@H]1C(=O)N1CCC[C@H]1C(=O)N[C@@H](Cc1ccccc1)C(=O)N2
- IC50 [1]: 102 nmol
- % inhibition at 100 µM [2]: 10%
- % inhibition at 100 µM [3]: 89.3%
- % inhibition at 100 µM [4]: 3.2%

B2: Example 71 (peptide)
peptide: XCTKSDPPXCR
HELM: PEPTIDE1{[O=C([C@@H](N[*:1])C1CCCCC1)[*:2]].C.T.K.S.D.P.P.[Cha].C.R.[dP].P}$PEPTIDE1,PEPTIDE1,2:R3-10:R3|PEPTIDE1,PEPTIDE1,1:R1-13:R2$$$V2.0
SMILES: C[C@@H](O)[C@@H]1NC(=O)[C@@H]2CSSC[C@H](NC(=O)[C@H](CC3CCCCC3)NC(=O)[C@@H]3CCCN3C(=O)[C@@H]3CCCN3C(=O)[C@H](CC(=O)O)NC(=O)[C@H](CO)NC(=O)[C@H](CCCCN)NC1=O)C(=O)N[C@@H](CCCNC(=N)N)C(=O)N1CCC[C@@H]1C(=O)N1CCC[C@H]1C(=O)N[C@@H](C1CCCCC1)C(=O)N2
- IC50 [1]: 70 nmol

B3: Example 53 (peptide)
peptide: FCTKSDPPXCS
HELM: PEPTIDE1{F.C.T.K.S.D.P.P.[Nle].C.S.[dP].P}$PEPTIDE1,PEPTIDE1,2:R3-10:R3|PEPTIDE1,PEPTIDE1,1:R1-13:R2$$$V2.0
SMILES: CCCC[C@@H]1NC(=O)[C@@H]2CCCN2C(=O)[C@@H]2CCCN2C(=O)[C@H](CC(=O)O)NC(=O)[C@H](CO)NC(=O)[C@H](CCCCN)NC(=O)[C@H]([C@@H](C)O)NC(=O)[C@@H]2CSSC[C@H](NC1=O)C(=O)N[C@@H](CO)C(=O)N1CCC[C@@H]1C(=O)N1CCC[C@H]1C(=O)N[C@@H](Cc1ccccc1)C(=O)N2
- IC50 [1]: 56 nmol
- % inhibition at 100 µM [2]: 12.7%
- % inhibition at 100 µM [3]: 95%
- IC50 [4]: > 100000 nmol

B4: Example 10 (peptide)
peptide: XCTKSDPPICS
HELM: PEPTIDE1{[Nle].C.T.K.S.D.P.P.I.C.S.[dP].P}$PEPTIDE1,PEPTIDE1,2:R3-10:R3|PEPTIDE1,PEPTIDE1,1:R1-13:R2$$$V2.0
SMILES: CCCC[C@@H]1NC(=O)[C@@H]2CCCN2C(=O)[C@H]2CCCN2C(=O)[C@H](CO)NC(=O)[C@@H]2CSSC[C@H](NC1=O)C(=O)N[C@@H]([C@@H](C)O)C(=O)N[C@@H](CCCCN)C(=O)N[C@@H](CO)C(=O)N[C@@H](CC(=O)O)C(=O)N1CCC[C@H]1C(=O)N1CCC[C@H]1C(=O)N[C@@H]([C@@H](C)CC)C(=O)N2
- IC50 [1]: 75 nmol
- % inhibition at 100 µM [2]: 9.4%
- % inhibition at 100 µM [3]: 89.9%
- % inhibition at 100 µM [4]: 0.3%

Binder: cyclo(FCTKSDPPICS[dP]L) (disulfide 2-10) [Example 51]
- IC50 [1]: 91 nmol
- IC50 [4]: > 100000 nmol

B10: Example 13 (peptide)
peptide: XCTKSDPPICR
HELM: PEPTIDE1{[O=C([C@H](Cc1ccccc1Cl)N[*:1])[*:2]].C.T.K.S.D.P.P.I.C.R.[dP].P}$PEPTIDE1,PEPTIDE1,2:R3-10:R3|PEPTIDE1,PEPTIDE1,1:R1-13:R2$$$V2.0
SMILES: CC[C@H](C)[C@@H]1NC(=O)[C@@H]2CCCN2C(=O)[C@@H]2CCCN2C(=O)[C@H](CC(=O)O)NC(=O)[C@H](CO)NC(=O)[C@H](CCCCN)NC(=O)[C@H]([C@@H](C)O)NC(=O)[C@@H]2CSSC[C@H](NC1=O)C(=O)N[C@@H](CCCNC(=N)N)C(=O)N1CCC[C@@H]1C(=O)N1CCC[C@H]1C(=O)N[C@@H](Cc1ccccc1Cl)C(=O)N2
- IC50 [1]: 100 nmol
- % inhibition at 100 µM [2]: 19.9%
- % inhibition at 100 µM [3]: 95%
- % inhibition at 100 µM [4]: 8.2%

Binder: cyclo(FCTKSDPPICS[dT]P) (disulfide 2-10) [Example 72]
- IC50 [1]: 87 nmol

B11: Example 9 (peptide)
peptide: XCTKSDPPICS
HELM: PEPTIDE1{[Nc1ccc(C[C@H](N[*:1])C(=O)[*:2])cc1].C.T.K.S.D.P.P.I.C.S.[dP].P}$PEPTIDE1,PEPTIDE1,2:R3-10:R3|PEPTIDE1,PEPTIDE1,1:R1-13:R2$$$V2.0
SMILES: CC[C@H](C)[C@@H]1NC(=O)[C@@H]2CCCN2C(=O)[C@@H]2CCCN2C(=O)[C@H](CC(=O)O)NC(=O)[C@H](CO)NC(=O)[C@H](CCCCN)NC(=O)[C@H]([C@@H](C)O)NC(=O)[C@@H]2CSSC[C@H](NC1=O)C(=O)N[C@@H](CO)C(=O)N1CCC[C@@H]1C(=O)N1CCC[C@H]1C(=O)N[C@@H](Cc1ccc(N)cc1)C(=O)N2
- IC50 [1]: 105 nmol
- % inhibition at 100 µM [3]: 88.1%
- % inhibition at 100 µM [4]: 4.1%

The next lines start with the values.

- IC50 [1]: 91 nmol
- % inhibition at 100 µM [3]: 86%
- IC50 [4]: > 100000 nmol
Binder: cyclo(FCTKSDPPICS[dP]L) (disulfide 2-10) [Example 74]

- IC50 [4]: 66 nmol
B5: Example 79 (peptide)
peptide: XCTASXPPQCY
HELM: PEPTIDE1{[Nle].C.T.A.S.[Nle].P.P.Q.C.Y.[dP].P}$PEPTIDE1,PEPTIDE1,2:R3-10:R3|PEPTIDE1,PEPTIDE1,1:R1-13:R2$$$V2.0
SMILES: CCCC[C@@H]1NC(=O)[C@@H]2CCCN2C(=O)[C@H]2CCCN2C(=O)[C@H](Cc2ccc(O)cc2)NC(=O)[C@@H]2CSSC[C@H](NC1=O)C(=O)N[C@@H]([C@@H](C)O)C(=O)N[C@@H](C)C(=O)N[C@@H](CO)C(=O)N[C@@H](CCCC)C(=O)N1CCC[C@H]1C(=O)N1CCC[C@H]1C(=O)N[C@@H](CCC(N)=O)C(=O)N2

- IC50 [4]: 35 nmol
B6: Example 80 (peptide)
peptide: XCTASXPPQCY
HELM: PEPTIDE1{[Nle].C.T.A.S.[CCCCCC[C@H](N[*:1])C(=O)[*:2]].P.P.Q.C.Y.[dP].P}$PEPTIDE1,PEPTIDE1,2:R3-10:R3|PEPTIDE1,PEPTIDE1,1:R1-13:R2$$$V2.0
SMILES: CCCCCC[C@@H]1NC(=O)[C@H](CO)NC(=O)[C@H](C)NC(=O)[C@H]([C@@H](C)O)NC(=O)[C@@H]2CSSC[C@H](NC(=O)[C@H](CCC(N)=O)NC(=O)[C@@H]3CCCN3C(=O)[C@@H]3CCCN3C1=O)C(=O)N[C@@H](Cc1ccc(O)cc1)C(=O)N1CCC[C@@H]1C(=O)N1CCC[C@H]1C(=O)N[C@@H](CCCC)C(=O)N2

- IC50 [4]: 68 nmol
B7: Example 77 (peptide)
peptide: XCTTSIPPYCY
HELM: PEPTIDE1{[Nle].C.T.T.S.I.P.P.Y.C.Y.[dP].P}$PEPTIDE1,PEPTIDE1,2:R3-10:R3|PEPTIDE1,PEPTIDE1,1:R1-13:R2$$$V2.0
SMILES: CCCC[C@@H]1NC(=O)[C@@H]2CCCN2C(=O)[C@H]2CCCN2C(=O)[C@H](Cc2ccc(O)cc2)NC(=O)[C@@H]2CSSC[C@H](NC1=O)C(=O)N[C@@H]([C@@H](C)O)C(=O)N[C@@H]([C@@H](C)O)C(=O)N[C@@H](CO)C(=O)N[C@@H]([C@@H](C)CC)C(=O)N1CCC[C@H]1C(=O)N1CCC[C@H]1C(=O)N[C@@H](Cc1ccc(O)cc1)C(=O)N2

- IC50 [4]: 71 nmol
B8: Example 76 (peptide)
peptide: ICTASLPPQCY
HELM: PEPTIDE1{I.C.T.A.S.L.P.P.Q.C.Y.[dP].P}$PEPTIDE1,PEPTIDE1,2:R3-10:R3|PEPTIDE1,PEPTIDE1,1:R1-13:R2$$$V2.0
SMILES: CC[C@H](C)[C@@H]1NC(=O)[C@@H]2CCCN2C(=O)[C@H]2CCCN2C(=O)[C@H](Cc2ccc(O)cc2)NC(=O)[C@@H]2CSSC[C@H](NC1=O)C(=O)N[C@@H]([C@@H](C)O)C(=O)N[C@@H](C)C(=O)N[C@@H](CO)C(=O)N[C@@H](CC(C)C)C(=O)N1CCC[C@H]1C(=O)N1CCC[C@H]1C(=O)N[C@@H](CCC(N)=O)C(=O)N2

- IC50 [4]: 43 nmol
B9: Example 83 (peptide)
peptide: XCTASXPPQCY
HELM: PEPTIDE1{[Nle].C.T.A.S.[CC(C)CC[C@H](N[*:1])C(=O)[*:2]].P.P.Q.C.Y.[dP].P}$PEPTIDE1,PEPTIDE1,2:R3-10:R3|PEPTIDE1,PEPTIDE1,1:R1-13:R2$$$V2.0
SMILES: CCCC[C@@H]1NC(=O)[C@@H]2CCCN2C(=O)[C@H]2CCCN2C(=O)[C@H](Cc2ccc(O)cc2)NC(=O)[C@@H]2CSSC[C@H](NC1=O)C(=O)N[C@@H]([C@@H](C)O)C(=O)N[C@@H](C)C(=O)N[C@@H](CO)C(=O)N[C@@H](CCC(C)C)C(=O)N1CCC[C@H]1C(=O)N1CCC[C@H]1C(=O)N[C@@H](CCC(N)=O)C(=O)N2

- IC50 [4]: 29 nmol
Binder: cyclo([Nle]CT[Abu]SIPPQCY[dP]P) (disulfide 2-10) [Example 78]
